pKd: −log10 of the molar value. Values joined by “and” are separate entries in the source; they are usually repeats but may differ in a detail not shown here. Equal entries are not always repeated.

In general, pKd refers to the Kd on a negative log10 scale, so that one unit is a factor of ten. The stoichiometry N is a count of units in the complex or per binding partner.

The target in test [1] is p53 transactivation domain (residues 1–73) (human) (UniProt P04637). Nature of the test: NMR titration.
Chain of p53 transactivation domain (residues 1–73) (human) (P04637 1-73): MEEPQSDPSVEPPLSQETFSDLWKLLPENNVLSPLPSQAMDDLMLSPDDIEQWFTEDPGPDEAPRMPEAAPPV
In test [2] the target is RING_(MUL1):UBE2D2 complex (UniProt Q969V5). Nature of the test: ITC. In general terms: Isothermal titration calorimetry measures the heat released or taken up as one component is titrated into another.
In a further test the target is UBE2D2 (UniProt P62837). Nature of the test: ITC.

Chain of RING domain of MUL1 (residues 298–352) (Q969V5 298-352): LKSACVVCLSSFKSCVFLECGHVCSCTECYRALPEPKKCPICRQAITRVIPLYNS
Chain of p53 transactivation domain (residues 1–73) (P04637 1-73): as the sequence (P04637 1-73) above

“RING_(MUL1):UBE2D2 complex (from UniProt Q969V5 298-352; P62837 1-147)”: the negative-log Kd (pKd) in test [1] is 3.77.

In test [2], “p53 transactivation domain (residues 1–73) (from UniProt P04637 1-73) (domain or fragment)” gave a pKd of 3.95, a dH of -673 cal/mol and a stoichiometry N of 1.01.

In the case of AD39 peptide (p53 residues 39–57), in test [2], the pKd was 3.74 and 3.76 and 3.71; the dH was -1130 cal/mol and -1140 cal/mol and -1120 cal/mol; the stoichiometry N was 0.88 and 0.89 and 0.87.

For “UBE2D2 (from UniProt P62837 1-147) (enzyme)”, the negative logarithm of the Kd (pKd) in test [1] is 3.13.

Consider “RING domain of MUL1 (residues 298–352) (from UniProt Q969V5 298-352) (domain or fragment)”, for which, in the test with UBE2D2, the negative-log Kd (pKd) was 4.37 and 4.55 and 4.89; the dH was found to be 1500 cal/mol.

These data come from article PMC9304225.
